US12692324B2, “Anti-chitinase-3-like protein-1 (YKL-40) neutralizing antibody and uses thereof” (Institute of Nuclear Energy Research, Atomic Energy …, priority 2022, dated 2026)
Entries after “also recorded” stand apart in the source; their conditions may differ. Each block holds one molecule with its values, some of them ahead of it.

What was measured:
[1] = test system: CA5171 ovarian cancer cells, which overexpress chitinase-3-like protein-1; test: Nano SPECT/CT bioimaging in tumor-carried mice; type: in vivo; details: tail vein injection
Source text: In order to verify these research results in a tumor-carried animal model, the CA5171 ovarian cancer cells, which overexpress chitinase-3-like protein-1, are inoculated in the left hind limb of the experiment animals. After the tumor volume grow to 200-300 mm3, use indium-111-DTPA-YKL-40 antibody complex as a radio-diagnostic drug for tumor mapping. The method of administration of diagnostic drugs is to inject the indium-111-DTPA-YKL-40 antibody complex by tail vein injection. Three tumor-carried mice are used as the animal model in both control and treatment groups, and the cross-sections of transverse, sagittal, and coronal are then taken at different time points such as 1, 4, 24 and 48 hours after administration. The tumor-carried mice of the control group are injected with indium-111-DTPA only, without YKL-40 antibody complex. […] The accumulation of the radioactive drug can at least last for 24 hours as shown in the results.

[2] = test system: human ovarian cancer cell CA5171; details: for proportion of Annexin V/7-AAD-positive apoptosis: CA5171, 50 μg/mL YKL-40 neutralizing antibody and/or 2.5 nM paclitaxel, 37° C., 48 hours
Method: It is important to know whether the YKL-40 neutralizing antibody of the present disclosure can induce cell apoptosis after combining with human ovarian cell CA5171. In this experiment, two specific dyes “7-amino-actinomycin D” (7-AAD) and “Annexin V” are used in the flow cytometry analysis to detect if the YKL-40 neutralizing antibody induces the cell apoptosis. In addition, the combination treatment of the chemotherapy drug paclitaxel and the YKL-40 neutralizing antibody is also analyzed in this experiment.
The experiment procedure applied herein is, firstly, to treat human ovarian cancer cell CA5171 with a final concentration of 50 μg/mL YKL-40 neutralizing antibody and/or 2.5 nM paclitaxel, then culture them at 37° C. for 48 hours. The control group is treated with normal saline. After the culturing, the cells are collected and stained with 7-AAD and FITC-conjugated annexin V (FITC, Fluorescein isothiocyanate) dyes for 30 minutes. After staining, the cells are washed by using cytometer analysis solution (normal saline with a final concentration of 0.2% fetal bovine serum and 0.5% sodium azide), and then analyzed by flow cytometry.

[3] = test system: human ovarian cancer cell CA5171; test: Binding ability of antibody to human ovarian cancer cell CA5171 by flow cytometry; type: cell-based
Method: When the YKL-40 neutralizing antibody of the present disclosure is isolated and purified, its binding ability to human ovarian cell CA5171 is then evaluated by flow cytometry. In this example, the antibody of the control group and YKL-40 neutralizing antibody are respectively added to the culture of the ovarian cell CA5171. After a period of culturing, the human ovarian cell CA5171 are then analyzed by flow cytometry. Please refer to FIGS. 1A and 1B. […] From the results, the binding ability of the control group antibody IgG is 28.69%, while the binding ability of the YKL-40 neutralizing antibody is as high as 71.57%.

time the radioactive drug sustains in the abdominal organs [1]: 1 h
Molecule: O=C([O-])CN(CCN(CC(=O)[O-])CC(=O)[O-])CCN(CC(=O)[O-])CC(=O)[O-].[111In+3].[H+].[H+] [indium-111-DTPA]

Molecule: CC(=O)O[C@H]1C(=O)[C@@]2(C)[C@H]([C@H](OC(=O)c3ccccc3)[C@]3(O)C[C@H](OC(=O)[C@H](O)[C@@H](NC(=O)c4ccccc4)c4ccccc4)C(C)=C1C3(C)C)[C@]1(OC(C)=O)CO[C@@H]1C[C@@H]2O [paclitaxel, reference compound]
proportion of Annexin V/7-AAD-positive apoptosis [2]: 43.90%±0.35%

B1: YKL-40 neutralizing antibody: isolated neutralizing antibody specifically binding chitinase-3-like protein-1 (YKL-40); VH SEQ ID NO: 7, VL SEQ ID NO: 8 (antibody, V domains shown)
VH: QIQLVQSGPELKKPGETVRISCKASGYTFPNYGMNWVKQAPGKGLKWMGWINTYTGEPTYTVDFKGQFAFSLETSASTAYLQINNLKNEDTATYFCARSFYGTNGFDYWGQGTTLTVSS
VL: NIVMTQSPKSMSMSVGERVTLSCKASENVGTYVSWYQQKPEQSPKLVIYGASNRYIGVPDRFTGSGSATDFTLTISSVEAEDLADYHCGQSYSYPPTFGGGTKLEIK
modifications: recombinant YKL-40 neutralizing antibody
binding ability ([3]; human ovarian cell CA5171): 71.57%
binding to CA5171 cells (in words) ([3]; versus control IgG antibody): stronger binding ability to CA5171 ovarian cells than the control group; also recorded: can significantly bind to human ovarian cancer cell CA5171
cytotoxicity (in words) [2]: not observed to be cytotoxic
proportion of Annexin V/7-AAD-positive apoptosis [2]: 3.91±0.11%
